Tests used:
Test in all cases: pull-down; GST::LIC::6xHis (50 pmol) with 50 or 250 pmol adaptor and glutathione agarose, 1 h at 4°C, 150 μL of 50 mM HEPES, 100 mM NaCl, 5 mM DTT, pH 7.5, 0.1% Tween 20; Coomassie staining and immunoblot against Strep-tag II
Conditions in all cases: both partners purified
[1] = target: T1, SPDL1(2–359)::Strep-tag II (human, UniProt Q96EA4 2-359)
T1 construct: human Spindly (SPDL1), N-terminal region, residues 2-359; also called Spindly; source: E. coli BL21, purified (Ni-NTA, TEV cleavage, Strep-Tactin; dialysis or SEC); not shown: 6xHis::MBP, N-terminal, cleaved; Strep-tag II (after linker GSGSGR), C-terminal, kept
T1 sequence (looked up): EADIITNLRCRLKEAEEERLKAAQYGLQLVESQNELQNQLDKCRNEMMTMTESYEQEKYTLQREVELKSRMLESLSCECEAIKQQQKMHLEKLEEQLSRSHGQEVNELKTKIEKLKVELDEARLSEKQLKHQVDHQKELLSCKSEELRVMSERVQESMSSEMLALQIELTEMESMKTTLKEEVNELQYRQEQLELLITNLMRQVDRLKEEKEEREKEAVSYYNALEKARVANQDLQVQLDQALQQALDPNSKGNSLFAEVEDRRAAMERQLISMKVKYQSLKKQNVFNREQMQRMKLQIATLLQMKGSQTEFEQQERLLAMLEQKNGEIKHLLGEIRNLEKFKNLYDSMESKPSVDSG

[2] = target: T2, HOOK3(2–552)::Strep-tag II (human, UniProt Q86VS8 2-552)
T2 construct: human Hook homolog 3 (HOOK3), residues 2-552; used for the GST pull-downs; also called Hook homolog 3; source: E. coli Rosetta, purified (Ni-NTA, TEV cleavage, Strep-Tactin; dialysis or SEC); not shown: 6xHis::MBP, N-terminal, cleaved; Strep-tag II (after linker GSGSGR), C-terminal, kept
T2 sequence (looked up): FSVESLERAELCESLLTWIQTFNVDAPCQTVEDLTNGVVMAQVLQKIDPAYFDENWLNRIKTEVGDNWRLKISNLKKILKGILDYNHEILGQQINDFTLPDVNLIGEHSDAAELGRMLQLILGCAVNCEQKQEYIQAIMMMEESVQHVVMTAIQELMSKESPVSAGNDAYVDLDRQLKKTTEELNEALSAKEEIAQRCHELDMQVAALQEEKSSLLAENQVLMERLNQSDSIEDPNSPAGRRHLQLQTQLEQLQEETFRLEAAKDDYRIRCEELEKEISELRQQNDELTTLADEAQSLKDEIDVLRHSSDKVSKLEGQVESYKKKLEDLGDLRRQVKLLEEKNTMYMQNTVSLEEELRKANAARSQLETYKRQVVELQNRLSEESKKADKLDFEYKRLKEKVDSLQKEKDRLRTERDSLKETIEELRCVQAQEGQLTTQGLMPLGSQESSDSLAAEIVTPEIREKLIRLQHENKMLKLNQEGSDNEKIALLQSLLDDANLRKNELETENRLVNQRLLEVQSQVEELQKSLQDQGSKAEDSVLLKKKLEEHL

NIN(1–693)::Strep-tag II = target: T3, NIN(1–693)::Strep-tag II (human, UniProt Q8N4C6 1-693)
T3 construct: human ninein (NIN), N-terminal fragment, residues 1-693 of 2,090; also called ninein; source: E. coli Rosetta, purified (Ni-NTA, TEV cleavage, Strep-Tactin; dialysis or SEC); not shown: 6xHis::MBP, N-terminal, cleaved; Strep-tag II (after linker GSGSGR), C-terminal, kept
T3 sequence (looked up): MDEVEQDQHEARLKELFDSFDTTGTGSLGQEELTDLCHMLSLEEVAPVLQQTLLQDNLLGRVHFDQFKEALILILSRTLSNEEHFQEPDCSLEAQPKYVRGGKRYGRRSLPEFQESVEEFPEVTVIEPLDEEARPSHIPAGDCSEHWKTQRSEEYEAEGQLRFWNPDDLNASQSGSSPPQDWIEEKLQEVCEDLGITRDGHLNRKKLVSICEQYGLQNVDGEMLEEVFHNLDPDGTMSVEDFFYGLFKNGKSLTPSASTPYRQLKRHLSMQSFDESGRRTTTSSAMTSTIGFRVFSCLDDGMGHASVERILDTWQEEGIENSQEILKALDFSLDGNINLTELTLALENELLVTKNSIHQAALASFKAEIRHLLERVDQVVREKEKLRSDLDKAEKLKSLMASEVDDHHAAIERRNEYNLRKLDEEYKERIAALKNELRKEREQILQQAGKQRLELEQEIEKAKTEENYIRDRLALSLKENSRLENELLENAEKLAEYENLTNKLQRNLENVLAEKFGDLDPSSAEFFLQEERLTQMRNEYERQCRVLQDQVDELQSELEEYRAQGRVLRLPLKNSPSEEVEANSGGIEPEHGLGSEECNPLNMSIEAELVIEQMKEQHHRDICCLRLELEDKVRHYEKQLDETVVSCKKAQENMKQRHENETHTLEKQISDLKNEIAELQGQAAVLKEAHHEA

Measured: binding result

B1: GST::LIC1(402–471)::6xHis (domain or fragment, human)
chain: WPGGSPRTPNRSVSSNVASVSPIPAGSKKIDPNMKAGATSEGVLANFFNSLLSKKTGSPGGPGVSGGSPAG
notes: single N-terminal tryptophan added in the construct; human dynein light intermediate chain 1 (DYNC1LI1), residues 402-471; source: E. coli BL21, purified (glutathione agarose, Ni-NTA; dialysis or SEC); not shown: GST, N-terminal, kept; 6xHis (after linker GSGSG), C-terminal, kept
binds: all assays above

B2: GST::LIC1(414–471)::6xHis (domain or fragment, human)
chain: WSSNVASVSPIPAGSKKIDPNMKAGATSEGVLANFFNSLLSKKTGSPGGPGVSGGSPAG
notes: single N-terminal tryptophan added in the construct; human dynein light intermediate chain 1 (DYNC1LI1), residues 414-471; source: E. coli BL21, purified (glutathione agarose, Ni-NTA; dialysis or SEC); not shown: GST, N-terminal, kept; 6xHis (after linker GSGSG), C-terminal, kept
binds: all assays above

B3: GST::LIC2(375–492)::6xHis (domain or fragment, human)
chain: WATPTRASESPARGPSGSPRTQGRGGPASVPSSSPGTSVKKPDPNIKNNAASEGVLASFFNSLLSKKTGSPGSPGAGGVQSTAKKSGQKTVLSNVQEELDRMTRKPDSMVTNSSTENEA
notes: single N-terminal tryptophan added in the construct; also called LIC2-C; source: E. coli BL21, purified (glutathione agarose, Ni-NTA; dialysis or SEC); not shown: GST, N-terminal, kept; 6xHis (after linker GSGSG), C-terminal, kept
binds: all assays above

B4: GST::LIC2(375–450)::6xHis (domain or fragment, human)
chain: WATPTRASESPARGPSGSPRTQGRGGPASVPSSSPGTSVKKPDPNIKNNAASEGVLASFFNSLLSKKTGSPGSPGAG
notes: single N-terminal tryptophan added in the construct; source: E. coli BL21, purified (glutathione agarose, Ni-NTA; dialysis or SEC); not shown: GST, N-terminal, kept; 6xHis (after linker GSGSG), C-terminal, kept
binds: all assays above
